Measurements published in a protein production outcome set (Wang et al. 2014).

Assay: label from the status in PepcDB records

Sequence | protein production
MGFTDSIREHVREHRTGMVHDLMFAVVWVAIVNFLFSAVFTDAPSWAFYMFMLAGIPAYFGFFFSLSMARAQQDSQ | failed
MYSLFQEGRKMKNTAFLITKNHYPKDYRLKKSPDSDSAMGVAKRILAEVMIFRRVPETISLCGTGCQKCASPHLPKIISAVNKNEPVTFILPAFPGKSPNPEKVLGHLPDHAERLSLNFLGTLCQRIKNFYTPGIKIILCSDGRVFSDVVGMNESDVTAYQLELDRLIKEMSLADLSTFNLDYFYKDLHFVQMREELMKSYGQSLDFLKQKIRNGAKPSASPDEQEANRMYSGITRFLFEDAMHAGQTKSRTAIQKESRFKAYEVIRRSNAWSALIAERFPKAVRLSIHPQTCGSKKLGIRLIGNESWMTPWHGVAVESNKGYVLLRRSEAEALGAKLICSSDGRHSHYQLMAEVSYELLEHHHHHH | not failed
MNSGRPETMENLPALYTIFQGEVAMVTDYGAFIKIPGCRKQGLVHRTHMSSCRVDKPSEIVDVGDKVWVKLIGREMKNDRIKVSLSMKVVNQGTGKDLDPNNVIIE | not failed
MPTPTYPKASLIIRERGLPKREVLLSPDRQWTIGRQLDCSIRLTDAYVSRLHAVINAFLFRGQPLYFIRDAHSRNGTFLNGFPLQHSTLLHHEDVIGVGTTLLVFYYPDMFREISLDECPELTKGSTDSLPWRS | failed
MTQSALHTEFGGIAALRDALARRQVSAVELAQSGLDAAQAASGLNAFLHIDPELTLAQARAADAALAAGTAGPLAGIPIAHKDAFVTRGWRTTAGSKMLAGYASPFDATVVERLAEAGAVSLGKLNCDEFAMGSGNENSAYGPVRNPWDTRAVPGGSSGGSAAAVAARLVAAATGTDTGGSVRQPAALCGVSGIKPTYGTVSRYGMIAFGSSLDQAGPLAPSSRDLLELLDVMTGFDPRDATSLQACDGQANESGRVRRGHDAAQAGYDAAGSQPLKGLRIGVPQEYFGAGLAPDVAAAVEAALAQFEQLGAVRVPVSLPRTELAIPAYYVIAPAEASSNLARYDGVRYGHRAAQYGDLNEMISRSRAEGFGDEVKRRILIGTYVLSHGYYDAYYLQAQRLRRLIAQDFQRAFADQCDVIMGPVSPTVAKNIGDNRDDPTADWLADVYTLGVSLAGLPAMSVPCGFGGQDGRRPVGLQIIGNYFDEGRLLALADRYQQVTDWHQRAPVSQDA | failed
ATKEFIYLVRGMTPEQGQAALDLKVPGVYGIEEFRRFYPAGDVTAHMVGFTDLDDHGREGVELAYDDWLAGVPGKRQVIKDRRGRLIKDVQVTKNAKAGKTLALSID | failed
MMKAEELNKGFVNEIIEAGTPVPGEKEVASLKSCYQCGTCTGSCPSGRRTAYRTRKVIRQALLGIDSVLDSDDIWKCTTCYTCYERCPRDVKVTEIIKTIRNLAAKKGNMATPHKMTAVYVLKAGHAVPANDDTAKLRKSIGLAEKAPIAQFSQKDMDEIRTIAKNLKFDELIGFDWKTMGLKQ | failed
MLKQRVITAMWLLPLMLGMLFYAPQWLWAAFCGLIALIALWEYARMGGLCKIKTNHYLAATLVFGVVAYAGGWMLPNLVWYVVLAFWLAVMPLWLRFKWRLNGGWQVYAVGWLLVMPFWFALVSLRPHPDDALPLLAVMGLVWVADICAYFSGKAFGKHKIAPAISPGKSWEGAIGGAVCVAVYMTAVRSAGWLAFDTGWFDTVLIGLVLTVVSVCGDLLESWLKRAAGIKDSSKLLPGHGGVFDRTDSLIAVISVYAAMMSVLN | failed
MISAGDFKNGVTFELDGQIFQVIEFQHVKPGKGAAFVRTKLKNIVTGATIEKTFNPTDKMPKAHIERKDMQYLYNDGDLYYFMDTETFEQLPLGKDKIGDALKFVKENEIVKVLSHKGNVFGIEPPNFVELEVTDTEPGFKGDTATGATKPAIVETGASIKVPLFVNKGDIIRIDTRTGEYMERV | not failed
MKGRSGDVNINTNAISTPARVLIYSTAAVLLTIGMKAISSILMPIFFSIFSYLIFAPLVRWLMRKRVPGKISVVLVILVFIFVFVGTTLLFANSLLQLSGRIPNYENQLTSILNSISIYLPEAGVSVESVLRDIAAFAFNVSGDIISGALNAGSTIALIVITTTFLLLDSAGAPVKMQKEGENQPVHISQYTELSRTVINYMLLRTETNLLGGIGTAILLLAGGIDFAVLWGLLFFLFGYIPYLGFYLAAIPPMLLGLFEYGLIGAVGVLVGITIINALVENVIFPSLAGKGLKLSPTLVFLSLFYWSFVLGAAGALIAVPLTIVVKIILESSEETRMIAKLMESSGTRDLDEKSTEENISE | failed
MKIWTSEHVFDHPWETVTTAAMQKYPNPMNPSVVGVDVLDRHIDPSGKLHSHRLLSTEWGLPSIVKSLIGAARTKTYVQEHSVVDPVEKTMELKSTNISFTNMVSVDERLIYKPHPQDPEKTVLTQEAIITVKGVSLSSYLEGLMASTISSNASKGREAMEWVIHKLNAEIEELTASARGTIRTPMAAAAFAEK | failed
MNNKTKGIILITISALSFALMSTFVKLSGDLPSIEKSFFRNLVSCFVAFYLVKKDNALLFGHKENRLALIGRSALGTLGIWANYYAIDRLILSDATILNKLSPFFVIIFSYLFLKEKLKPIHIICLLAAFSGVLFIVRPSGNLASNFIPAIIGLCSAAFAGGAYTFVRYLGGKEKGATIVFFFSFFSIVTTFPIMLFQFETFSLEQFVFLILAGVAASCAQFALTAAYKYAPARDISIYDYTQVIFTALIGFVLFGDIPDKISLIGYVLILLASFSIFLYNKKEASK | not failed
DHHAWHRLLDRALSEQHFQLYFQPVVAARDTHLVLHYKVLSRLLDEQGQTIPAGRFLPWLERFGWTSRLDLLMLEQVLRQMASHEDCLALNLSAATLADPHALNRVFEILRQHSDLGPRLTLEIGEEQLPEQAMLEQLTRRLRELGFSLSLQRFGGRFSMIGNLARLGLAYLKIDGSYIRDIDQESDKRLFIEAIQRAAHSIDLPLIAERVETEGELQVIREMGLYGVQGQLFGEPAPWG | not failed
MQAVRLFQGYLWHPRALALDLKALLPGEVAGARLLWDEVPPPTPFFEDGTPTHTQRFYQLTLLVLTEEPPEALKPLAEEAAEALGEVLEGLPPEVGWLLLEDLRPL | not failed
PEDAINDESDDEDKVDKDDRLPQSDKDKRIVPENEYSDSEDEGEGGRRDNRSYKGQRKRPRLDKDTNSNKASSETSSEIKDEKEKGDGADGEESTASNTNS | failed
MLPIYTGSAIQCPMRLDAYLVEMGHFKSRGRAKTAILDGKVKVNGIAVTKVSRDVSIDDTIEVAEGLDQPQGYFKLKYVQEESGVLKPGDRVLDLGSSAGGFLLFASEIADHVKGIEFSRDFRSELGKIAYERENVEIIFGDVFTIPLKELSEEPVDVILSDMTLEPEDSIKALSRMLPLLKEGGRLLQVIKIPKKKNPKPILSRIENLGLEIQQVLSSEKQEIYVVAKRPFLEGKESTEENE | failed
MTTLKLFDIEHAWGLPRKVSPRFGARLILRGLHLDYLHDRASFVGEFPPAIKQQFVEAFPAMVKQLERLVATGEIDTTEQHCVSIEHAGFTCEADTLGSHGYLYIAIYQTKAKPLTTSNLTITRLEHHHHHH | failed
MMKLVCPSYIAKRKDSLAFKLFSYMTAIVISILLVQALAEQALVKAMLKVPNSVKMEMLDLAHQANVLIEHGDMDELADWANAQQFYLFVLNEQLQPVTHRLMHPHFEFKLQFKRSIDDQLEDKVNRPIISIPLVQQHNLVIQLPHRLHPANDFILYFSIIKVVIAAVILALFSLLMARNLQQPLDRLREASKKLSNGDFNVSVVQELKSNTREFNELAQDFDHMTKEIHSLAEKQRLLIRDVSHELRTPLARQNLVLHLLRKRVGESEQELVTRLEDEAKELNHLISDILEFSRLENARYDKETKRSDLEVLLAPQVERCKIDLRESQSIVFISRVTEPRAYCEDTLVVRCLNNLVGNAIKYAGEDARIEVTLTNQEINGQAYLVMSVSDDGPGIPENKLSDIFNPFTRLDASRDKKLGGYGLGLAIVKESMRMMGGSVNAENRSQGGLTVSLVFRQ | failed
MAQREIRLVDNEYPSPSMTHPPIPLSDIALTGIFEISKILTSPARLEITLANVVNLLQSFLQMRNGVVSLLADDGVPDITVGVGWNEGSDNRYRARLPQKAIDQIVATAVPLVADNVSAHPMFTAADAMALGATDEIRVSFIGVPIRIDSRVVGTLSIDRVRDGRSHFRMDADVRFLTMVANLIGQTVKLHRVVARDRERLMAESHRLQKELS | failed
